What follows are binders tested against T1, Her2 ECD (amino acids 1 to 629 of matured HER2 with C-terminal avi-tag and His-tag) (human, UniProt P04626 23-652) (assay: SPR, Ab captured, Her2 analyte;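 further: ProteOn XPR36 SPR, rate constants from simultaneous fit of association and dissociation sensorgrams to a 1:1 Langmuir model, buffer-channel referenced, KD taken as koff/kon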).
T1 construct: also called purified Her2

Row | Kd | koff | kon | Binder
1 | 5.52 nM | 0.00245 s⁻¹ | 443000 M⁻¹ s⁻¹ | Pertuzumab HC x Pertuzumab (Tras.L3) T56S LC (antibody, V domains shown) VH: EVQLVESGGGLVQPGGSLRLSCAASGFTFTDYTMDWVRQAPGKGLEWVADVNPNSGGSIYNQRFKGRFTLSVDRSKNTLYLQMNSLRAEDTAVYYCARNLGPSFYFDYWGQGTLVTVSS VL: DIQMTQSPSSLSASVGDRVTITCKASQDVSIGVAWYQQKPGKAPKLLIYSASYRYSGVPSRFSGSGSGTDFTLTISSLQPEDFATYYCQQHYTTPPTFGQGTKVEIK
2 | 66.8 nM | 0.0252 s⁻¹ | 377000 M⁻¹ s⁻¹ | Trastuzumab HC x Pertuzumab (Tras.L3) K24R LC (antibody, V domains shown) VH: not shown VL: DIQMTQSPSSLSASVGDRVTITCRASQDVSIGVAWYQQKPGKAPKLLIYSASYRYTGVPSRFSGSGSGTDFTLTISSLQPEDFATYYCQQHYTTPPTFGQGTKVEIK
3 | 7.21 nM | 0.00341 s⁻¹ | 473000 M⁻¹ s⁻¹ | Trastuzumab HC x Pertuzumab (Tras.L3) I31T LC (antibody, V domains shown) VH: not shown VL: DIQMTQSPSSLSASVGDRVTITCKASQDVSTGVAWYQQKPGKAPKLLIYSASYRYTGVPSRFSGSGSGTDFTLTISSLQPEDFATYYCQQHYTTPPTFGQGTKVEIK
4 | 10.9 nM | 0.00558 s⁻¹ | 514000 M⁻¹ s⁻¹ | Trastuzumab HC x Pertuzumab (Tras.L3) G66R LC (antibody, V domains shown) VH: not shown VL: DIQMTQSPSSLSASVGDRVTITCKASQDVSIGVAWYQQKPGKAPKLLIYSASYRYTGVPSRFSGSRSGTDFTLTISSLQPEDFATYYCQQHYTTPPTFGQGTKVEIK
5 | 8.03 nM | 0.00254 s⁻¹ | 316000 M⁻¹ s⁻¹ | Pertuzumab HC x Pertuzumab (Tras.L3) Y53F LC (antibody, V domains shown) VH: EVQLVESGGGLVQPGGSLRLSCAASGFTFTDYTMDWVRQAPGKGLEWVADVNPNSGGSIYNQRFKGRFTLSVDRSKNTLYLQMNSLRAEDTAVYYCARNLGPSFYFDYWGQGTLVTVSS VL: DIQMTQSPSSLSASVGDRVTITCKASQDVSIGVAWYQQKPGKAPKLLIYSASFRYTGVPSRFSGSGSGTDFTLTISSLQPEDFATYYCQQHYTTPPTFGQGTKVEIK
6 | 49.4 nM | 0.0232 s⁻¹ | 470000 M⁻¹ s⁻¹ | Trastuzumab HC x Pertuzumab (Tras.L3) T56S LC (antibody, V domains shown) VH: not shown VL: DIQMTQSPSSLSASVGDRVTITCKASQDVSIGVAWYQQKPGKAPKLLIYSASYRYSGVPSRFSGSGSGTDFTLTISSLQPEDFATYYCQQHYTTPPTFGQGTKVEIK
7 | 71.5 nM | 0.0297 s⁻¹ | 416000 M⁻¹ s⁻¹ | Trastuzumab HC x Pertuzumab (Tras.L3) R54L LC (antibody, V domains shown) VH: not shown VL: DIQMTQSPSSLSASVGDRVTITCKASQDVSIGVAWYQQKPGKAPKLLIYSASYLYTGVPSRFSGSGSGTDFTLTISSLQPEDFATYYCQQHYTTPPTFGQGTKVEIK
8 | 0.782 nM | 0.00063 s⁻¹ | 805000 M⁻¹ s⁻¹ | Pertuzumab HC x Pertuzumab (Tras.L3) T94Y LC (antibody, V domains shown) VH: EVQLVESGGGLVQPGGSLRLSCAASGFTFTDYTMDWVRQAPGKGLEWVADVNPNSGGSIYNQRFKGRFTLSVDRSKNTLYLQMNSLRAEDTAVYYCARNLGPSFYFDYWGQGTLVTVSS VL: DIQMTQSPSSLSASVGDRVTITCKASQDVSIGVAWYQQKPGKAPKLLIYSASYRYTGVPSRFSGSGSGTDFTLTISSLQPEDFATYYCQQHYTYPPTFGQGTKVEIK
9 | 64.6 nM | 0.0256 s⁻¹ | 396000 M⁻¹ s⁻¹ | Trastuzumab HC x Pertuzumab (Tras.L3) S30N LC (antibody, V domains shown) VH: not shown VL: DIQMTQSPSSLSASVGDRVTITCKASQDVNIGVAWYQQKPGKAPKLLIYSASYRYTGVPSRFSGSGSGTDFTLTISSLQPEDFATYYCQQHYTTPPTFGQGTKVEIK
10 | 28 nM | 0.0116 s⁻¹ | 413000 M⁻¹ s⁻¹ | Trastuzumab HC x Pertuzumab (Tras.L3) I31V LC (antibody, V domains shown) VH: not shown VL: DIQMTQSPSSLSASVGDRVTITCKASQDVSVGVAWYQQKPGKAPKLLIYSASYRYTGVPSRFSGSGSGTDFTLTISSLQPEDFATYYCQQHYTTPPTFGQGTKVEIK
11 | 44.9 nM | 0.0171 s⁻¹ | 381000 M⁻¹ s⁻¹ | Trastuzumab HC x Pertuzumab (Tras.L3) Y53F LC (antibody, V domains shown) VH: not shown VL: DIQMTQSPSSLSASVGDRVTITCKASQDVSIGVAWYQQKPGKAPKLLIYSASFRYTGVPSRFSGSGSGTDFTLTISSLQPEDFATYYCQQHYTTPPTFGQGTKVEIK
12 | 3.97 nM | 0.00268 s⁻¹ | 675000 M⁻¹ s⁻¹ | Trastuzumab HC x Pertuzumab (Tras.L3) G32A LC (antibody, V domains shown) VH: not shown VL: DIQMTQSPSSLSASVGDRVTITCKASQDVSIAVAWYQQKPGKAPKLLIYSASYRYTGVPSRFSGSGSGTDFTLTISSLQPEDFATYYCQQHYTTPPTFGQGTKVEIK

Each binder was assayed against T2, human transferrin receptor (recombinant, for surface plasmon resonance) (human, UniProt P02786 89-760) (assay: SPR).
T2 construct: also called huTfR; human transferrin receptor-biotinylated
T2 sequence (P02786 89-760 limits assumed): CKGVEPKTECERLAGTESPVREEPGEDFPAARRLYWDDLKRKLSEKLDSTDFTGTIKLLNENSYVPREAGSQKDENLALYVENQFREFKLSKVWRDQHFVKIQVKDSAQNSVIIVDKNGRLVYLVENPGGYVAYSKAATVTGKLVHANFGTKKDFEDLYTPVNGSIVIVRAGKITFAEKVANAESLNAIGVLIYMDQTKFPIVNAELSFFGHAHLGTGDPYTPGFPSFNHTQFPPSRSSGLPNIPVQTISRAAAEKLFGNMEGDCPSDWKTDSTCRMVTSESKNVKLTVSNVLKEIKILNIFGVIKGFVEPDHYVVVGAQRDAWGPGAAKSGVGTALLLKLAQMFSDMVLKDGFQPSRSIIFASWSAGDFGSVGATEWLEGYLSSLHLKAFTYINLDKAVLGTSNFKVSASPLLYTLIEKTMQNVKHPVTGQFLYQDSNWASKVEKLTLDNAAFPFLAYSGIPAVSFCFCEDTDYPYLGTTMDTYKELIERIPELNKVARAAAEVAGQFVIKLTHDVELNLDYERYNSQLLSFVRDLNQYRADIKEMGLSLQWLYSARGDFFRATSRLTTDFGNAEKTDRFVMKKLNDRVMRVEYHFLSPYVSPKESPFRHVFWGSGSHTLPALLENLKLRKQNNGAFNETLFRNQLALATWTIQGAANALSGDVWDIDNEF

Row | koff | Binder
13 | 0.000136 s⁻¹ | 4/94 murine VH / murine VL (antibody, V domains shown, 0 (mu) read as the murine parental domains of clone 4/94; also called 0 (mu) x 0 (mu)) VH: EVQLQQSGAVLVKPGASVKLSCPASGFNIKDTYIHWVIQRPEQGLEWIGRIDPANGDTKCDPKFQVKATITADTSSNTAYLQLSSLTSEDTAVYFCVRDYLYPYYFDFWGQGTTLTVSS VL: KIVMTQSPKSMSMSVGERVTLNCRASESVDTYVSWYQQKPEQSPELLIYGASNRYTGVPDRFTGSGSATDFTLTISSVQAEDLADYYCGQTYNYPLTFGAGTKLELKR
14 | 0.000156 s⁻¹ | 4/94 murine VH / SEQ ID NO 207 (antibody, V domains shown) VH: EVQLQQSGAVLVKPGASVKLSCPASGFNIKDTYIHWVIQRPEQGLEWIGRIDPANGDTKCDPKFQVKATITADTSSNTAYLQLSSLTSEDTAVYFCVRDYLYPYYFDFWGQGTTLTVSS VL: KIVLTQSPGTLSLSPGERATLSCRASESVDTYVSWYQQKPGQAPRLLIYGASNRYTGVPDRFSGSGSGTDFTLTISRLEPEDFADYYCGQTYNYPLTFGQGTKLEI
15 | 0.000137 s⁻¹ | 4/94 murine VH / SEQ ID NO 201 (antibody, V domains shown) VH: EVQLQQSGAVLVKPGASVKLSCPASGFNIKDTYIHWVIQRPEQGLEWIGRIDPANGDTKCDPKFQVKATITADTSSNTAYLQLSSLTSEDTAVYFCVRDYLYPYYFDFWGQGTTLTVSS VL: KIQMTQSPSSLSASVGDRVTITCRASESVDTYVSWYQQKPGKAPKLLIYGASNRYTGVPSRFSGSGSGTDFTLTISSLQPEDFADYYCGQTYNYPLTFGQGTKLEI
16 | 0.000339 s⁻¹ | 4/94 SEQ ID NO 196 / murine VL (antibody, V domains shown) VH: QVQLVQSGAEVKKPGASVKVSCKASGFNIKDTYIHWVIQAPGQGLEWMGRIDPANGDTKSDPKFQGRVTITADTSTSTVYMELSSLRSEDTAVYYCVRDYLYPYYFDFWGQGTTVTVSS VL: KIVMTQSPKSMSMSVGERVTLNCRASESVDTYVSWYQQKPEQSPELLIYGASNRYTGVPDRFTGSGSATDFTLTISSVQAEDLADYYCGQTYNYPLTFGAGTKLELKR
17 | 0.000148 s⁻¹ | 4/94 murine VH / SEQ ID NO 208 (antibody, V domains shown) VH: EVQLQQSGAVLVKPGASVKLSCPASGFNIKDTYIHWVIQRPEQGLEWIGRIDPANGDTKCDPKFQVKATITADTSSNTAYLQLSSLTSEDTAVYFCVRDYLYPYYFDFWGQGTTLTVSS VL: EIVLTQSPGTLSLSPGERATLSCRASESVDTYVSWYQQKPGQAPRLLIYGASNRYTGVPDRFSGSGSGTDFTLTISRLEPEDFADYYCGQTYNYPLTFGQGTKLEI
18 | 0.000177 s⁻¹ | 4/94 murine VH / SEQ ID NO 209 (antibody, V domains shown) VH: EVQLQQSGAVLVKPGASVKLSCPASGFNIKDTYIHWVIQRPEQGLEWIGRIDPANGDTKCDPKFQVKATITADTSSNTAYLQLSSLTSEDTAVYFCVRDYLYPYYFDFWGQGTTLTVSS VL: KIVLTQSPGTLSLSPGERATLSCRASESVDTYVSWYQQKPGQAPRLLIYGASNRYTGIPDRFSGSGSGTDFTLTISRLEPEDFADYYCGQTYNYPLTFGQGTKLEI
19 | 0.000544 s⁻¹ | 4/94 SEQ ID NO 198 / murine VL (antibody, V domains shown) VH: QVQLVQSGAEVKKPGSSVKVSCKASGFNIKDTYIHWVIQRPGQGLEWMGRIDPANGDTKSDPKFQGRVTITADESTSTAYMELSSLRSEDTAVYYCVRDYLYPYYFDFWGQGTTVTVSS VL: KIVMTQSPKSMSMSVGERVTLNCRASESVDTYVSWYQQKPEQSPELLIYGASNRYTGVPDRFTGSGSATDFTLTISSVQAEDLADYYCGQTYNYPLTFGAGTKLELKR
20 | 0.000364 s⁻¹ | 4/94 SEQ ID NO 195 / murine VL (antibody, V domains shown) VH: QVQLVQSGAEVKKPGASVKVSCKASGFNIKDTYIHWVIQAPGQGLEWMGRIDPANGDTKSAPKFQVRVTITADTSTSTVYMELSSLRSEDTAVYYCVRDYLYPYYFDFWGQGTTVTVSS VL: KIVMTQSPKSMSMSVGERVTLNCRASESVDTYVSWYQQKPEQSPELLIYGASNRYTGVPDRFTGSGSATDFTLTISSVQAEDLADYYCGQTYNYPLTFGAGTKLELKR
21 | 0.000542 s⁻¹ | 4/94 SEQ ID NO 197 / murine VL (antibody, V domains shown) VH: QVQLVQSGAEVKKPGSSVKVSCKASGFNIKDTYIHWVIQAPGQGLEWMGRIDPANGDTKSDPKFQGRVTITADESTSTAYMELSSLRSEDTAVYYCVRDYLYPYYFDFWGQGTTVTVSS VL: KIVMTQSPKSMSMSVGERVTLNCRASESVDTYVSWYQQKPEQSPELLIYGASNRYTGVPDRFTGSGSATDFTLTISSVQAEDLADYYCGQTYNYPLTFGAGTKLELKR
22 | 0.00037 s⁻¹ | 4/94 SEQ ID NO 194 / murine VL (antibody, V domains shown) VH: QVQLVQSGAEVKKPGASVKVSCKASGFNIKDTYIHWVIQAPGQGLEWMGRIDPANGDTKSDPKFQVRVTITADTSTSTVYMELSSLRSEDTAVYYCVRDYLYPYYFDFWGQGTTVTVSS VL: KIVMTQSPKSMSMSVGERVTLNCRASESVDTYVSWYQQKPEQSPELLIYGASNRYTGVPDRFTGSGSATDFTLTISSVQAEDLADYYCGQTYNYPLTFGAGTKLELKR
23 | 0.000386 s⁻¹ | 4/94 SEQ ID NO 196 / SEQ ID NO 201 (antibody, V domains shown) VH: QVQLVQSGAEVKKPGASVKVSCKASGFNIKDTYIHWVIQAPGQGLEWMGRIDPANGDTKSDPKFQGRVTITADTSTSTVYMELSSLRSEDTAVYYCVRDYLYPYYFDFWGQGTTVTVSS VL: KIQMTQSPSSLSASVGDRVTITCRASESVDTYVSWYQQKPGKAPKLLIYGASNRYTGVPSRFSGSGSGTDFTLTISSLQPEDFADYYCGQTYNYPLTFGQGTKLEI
24 | 0.00041 s⁻¹ | 4/94 SEQ ID NO 194 / SEQ ID NO 201 (antibody, V domains shown) VH: QVQLVQSGAEVKKPGASVKVSCKASGFNIKDTYIHWVIQAPGQGLEWMGRIDPANGDTKSDPKFQVRVTITADTSTSTVYMELSSLRSEDTAVYYCVRDYLYPYYFDFWGQGTTVTVSS VL: KIQMTQSPSSLSASVGDRVTITCRASESVDTYVSWYQQKPGKAPKLLIYGASNRYTGVPSRFSGSGSGTDFTLTISSLQPEDFADYYCGQTYNYPLTFGQGTKLEI

Source: patent US20180291110A1 (Hoffmann-La Roche, published 2018)
